In US20230183352A1:
Numbering of substitutions follows the chain as printed.

B1: QP190191 (antibody, human IgG1, V domains shown)
VH: EVKLVESGGGLVKPGGSLKLSCAASGFTFSNYAMSWVRQTPEKRLEWVASIISGGRTYYLDSEKGRFTISRDNARNNLYLQMSSLRSEDTAMYYCTRIYYGNSFDYWGQGTTLTVSS
VL: DIVMTQSPSSQTVTAGEKVTMSCKSSQSLLNSGNQKNYLTWYQQKPGQPPKLLIYWASTRESGVPDRFTGSGSGTDFTLTISNMQAEDLAVYYCQNDYSYPFTFGSGTKLEIK
B2: QP201202 (antibody, human IgG1, V domains shown)
VH: EVQLQQSGPELVKPGASVKMSCKASGYTFTNYFVHWVKQKPGQGLEWIGYINPYNDDTKYNEKFKGKATLTSDKSSSTAYMDLSSLTSEDSAVYYCLSLRFFAYWGQGTLVTVSA
VL: B1 VL with Q11L, P49A, T69I, N83H, M84V, Y93F, F102L, S106A, K109N, I112L
B3: QP192193 (antibody, human IgG1, V domains shown)
VH: QVQLQQSGAELVRPGSSVKISCKASGYAFSSYWMNWVKQRPGQGLEWIGQIYPGNGDTTYNGKFKGQATLTADKSSSTVYMQLSSLTSEDSAVYFCARFVKGNAMDYWGQGTSVTVSS
VL: B1 VL with Q11L, K45N, L52M, T75I, T78S, N83S, M84V, V91L, D97A
B4: QP207208 (antibody, human IgG1, V domains shown)
VH: EVQLQQSGPELVKPGASVKMSCKASGYTFTSYIMHWVKQKPGQGLEWIGYINPYNDGTKYNEKFKGKATLTSDKSSSTVYMELSSLTSEDSAVYCCARLGFTTRNAMDYWGQGTSVTVSS
VL: B1 VL with Q11L, T12S, T14S, S22N, T40A, W56G, N83S, M84V, Y98H
B5: QP199200 (antibody, human IgG1, V domains shown)
VH: DVQLVESGGGLVQPGGSRKLSCAASGFTFSSFGMHWVRQAPEKGLEWVAYISSGSNSIYYVDTVKGRFTISRDNPKNTLFLQMTSLKSEDTAMYYCARNAYYGNSFDYWGQGTTLTVSS
VL: B1 VL with Q11L, D76V, N83S, M84V, Y93F, D97N, S99Y, F102L, S106A, I112L
B6: QP1166 (Fc fusion, not shown: a dimerising Fc or GST)
chain: QVQLVESGGDSVQPGGSLRLSCAASGFTYGTYAMSWFRQAPGKEREGVACIDIYGRTSYTDPVKGRFTISQDNAKNTLYLQMNSLKPEDTAMYYCAARDFGYCTASWVHEGFSRYWGQGTQVTVSS
B7: QP320 (Fc fusion, not shown: a dimerising Fc or GST)
chain: EVQLLESGGGLVQPGGSLRLSCAASGFTYGTYAMSWVRQAPGKGLEWVSCIDIYGRASYTDPVKGRFTISRDNSKNTLYLQMNSLRAEDTAVYYCAARDFGYCTASWVHEGFSRYWGQGTLVTVSS
B8: QP324 (Fc fusion, not shown: a dimerising Fc or GST)
chain: B7 chain with S49A, A57T, R71Q
B9: QP325 (Fc fusion, not shown: a dimerising Fc or GST)
chain: B7 chain with V37F, W47G, S49A, A57T, R71Q

What follows are binders tested against Claudin 18.1 (CLDN18.1), expressed on CHOS-CLDN18.1 cells (UniProt P56856) (assay: FACS, CHOS-CLDN18.1 cells, 10 µg/ml).
Sequence of Claudin 18.1 (CLDN18.1), expressed on CHOS-CLDN18.1 cells (P56856 whole entry): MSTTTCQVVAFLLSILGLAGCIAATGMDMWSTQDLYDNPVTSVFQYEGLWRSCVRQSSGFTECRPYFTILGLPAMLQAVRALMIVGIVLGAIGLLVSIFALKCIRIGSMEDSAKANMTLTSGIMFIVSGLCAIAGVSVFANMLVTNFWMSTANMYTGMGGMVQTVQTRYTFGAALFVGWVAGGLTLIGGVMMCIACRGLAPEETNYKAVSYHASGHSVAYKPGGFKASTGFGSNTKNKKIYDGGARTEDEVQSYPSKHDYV

In order of rising MFI:
1. B5  918
2. B3  1030
3. B1  1060
4. B2  1150
5. B4  1320

These binders were tested against Biotin QP004.3 (biotin-PDL1-FC) (human) (UniProt Q9NZQ7) (assay: blocking ELISA, PD1-FC coated, biotin-PDL1-FC plus antibody; competitor PD1-FC).
Sequence of Biotin QP004.3 (biotin-PDL1-FC) (human) (Q9NZQ7 19-238 limits assumed): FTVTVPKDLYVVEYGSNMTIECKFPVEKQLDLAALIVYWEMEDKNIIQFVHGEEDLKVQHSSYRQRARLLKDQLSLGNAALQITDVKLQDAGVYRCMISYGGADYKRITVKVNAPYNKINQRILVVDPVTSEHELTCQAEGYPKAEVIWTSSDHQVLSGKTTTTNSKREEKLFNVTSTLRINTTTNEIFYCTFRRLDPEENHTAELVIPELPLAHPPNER

In order of falling ELISA reading at 0.0457 nM antibody:
1. B8  1.29
2. B7  1.21
3. B6  1.16
4. B9  1.08

In order of rising ELISA reading at 0.1372 nM antibody:
1. B9  1.02
2. B8  1.06
3. B6  1.24
4. B7  1.3

In order of rising ELISA reading at 0.4115 nM antibody:
1. B8  0.901
2. B9  0.975
3. B6  1.06
4. B7  1.47

In order of rising ELISA reading at 1.2346 nM antibody:
1. B8  0.879
2. B9  0.995
3. B7  1.08
4. B6  1.13

In order of falling ELISA reading at 3.7037 nM antibody:
1. B7  1.11
2. B6  1.06
3. B9  1.03
4. B8  0.895

In order of rising ELISA reading at 11.1111 nM antibody:
1. B6  0.508
2. B9  0.513
3. B8  0.753
4. B7  1.12

In order of rising ELISA reading at 33.3333 nM antibody:
1. B9  0.238
2. B6  0.239
3. B8  0.737
4. B7  1.02

In order of falling ELISA reading at 100.0000 nM antibody:
1. B7  0.793
2. B8  0.661
3. B6  0.167
4. B9  0.156

These binders were tested against Biotin QP004.3 (biotin-PDL1-FC) (human) (UniProt Q9NZQ7) (assay: binding ELISA, antibody coated, biotin-PDL1-FC titrated).

In order of rising ELISA reading at 0.0007 µg/ml biotin-PDL1-FC:
1. B7  0.125
2. B9  0.182
3. B8  0.192
4. B6  0.217

In order of rising ELISA reading at 0.0021 µg/ml biotin-PDL1-FC:
1. B7  0.114
2. B8  0.141
3. B6  0.56
4. B9  0.598

In order of rising ELISA reading at 0.0062 µg/ml biotin-PDL1-FC:
1. B7  0.108
2. B8  0.15
3. B9  1.32
4. B6  1.55

In order of falling ELISA reading at 0.0185 µg/ml biotin-PDL1-FC:
1. B6  2.57
2. B9  2.12
3. B8  0.107
4. B7  0.0792

In order of rising ELISA reading at 0.0556 µg/ml biotin-PDL1-FC:
1. B7  0.0843
2. B8  0.0882
3. B9  2.78
4. B6  3.23

In order of rising ELISA reading at 0.1667 µg/ml biotin-PDL1-FC:
1. B7  0.0957
2. B8  0.129
3. B9  3.11
4. B6  3.13

In order of rising ELISA reading at 0.5000 µg/ml biotin-PDL1-FC:
1. B7  0.142
2. B8  0.201
3. B9  3.21
4. B6  3.28

In order of rising ELISA reading at 2.0000 µg/ml biotin-PDL1-FC:
1. B7  0.23
2. B8  0.413
3. B6  3.41
4. B9  3.42
